Experimental data taken from the supplement of paper PMC10567573.

B1: ZNF449 (parent)
chain: CTHCSKSFRQRAGLIMHQVTHFRG

Variants of: B1
Experiment: protein stability index of a GFP-peptide fusion (GPS, HEK-293T) (PSI 1-6); higher = more stable
Conditions: c terminus: a fixed tail appended
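Note: lentivirally expressed fusions sorted by FACS into six bins by GFP to DsRed ratio, PSI derived from sequencing read proportions per bin multiplied by bin number.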

Protein stability index of substitutions, site by site:
F8: N 2.04; Y 3.03; T 1.7; A 1.91; P 1.81; S 2.43; D 1.54; Q 2.17
G13: V 2.58; F 1.95; R 2.65; E 3.16; L 1.68; I 1.96; Y 1.31; C 1.07; H 1.4; S 1.52; M 2.12; A 2.47; T 2.36; W 1.87; Q 2.87; K 2.06; N 2.69; P 1.23
R9: C 2.33; M 2.9; K 2.81; H 1.87; P 2.29; S 3.04; W 2.07; Y 1.79; Q 2.63; G 2.18; V 3.17; E 2.15; I 1.94; A 2.58; D 3.85; N 2.77; T 2.77; L 1.96
Q10: I 1.67; R 1.6; E 2.61; D 3.41; H 2.13; M 1.86; V 2.19; Y 1.95; N 2.15; P 1.76; A 2.51; T 2.75; L 1.59; F 1.9; W 2.77; S 1.99; K 2.58; C 2.43
F22: Q 2.5; W 1.08; T 1.98; K 2.06; Y 2.45; M 2.18; L 1.93; D 2.37; I 1.92; P 1.58; N 2.39; C 3.06; G 2.61; A 1.72; H 3.29; R 3.58; S 2.2; E 1.98; V 2.14
R23: N 2.15; V 3.18; H 1.62; P 2.69; A 2.97; W 3.55; T 2.03; L 3.36; Q 2.6; K 2.7; F 3.33; D 2.49; I 3.44; G 2.37; M 2.44; C 2.56; S 2.07; Y 2.36; E 2.93
T20: I 2.57; D 2.18; W 2.09; Y 2.05; V 1.73; N 2.44; C 1.52; A 2.04; Q 1.83; F 2.09; G 2.06; R 2.14; S 1.45; M 1.56; H 2.33; L 1.43; K 2.33; E 1.99
H17: L 1.69; D 2.46; P 1.03; G 3.28; R 1.82; I 2.52; K 2.24; E 2.36; N 1.43; T 1.47; W 2.12; M 2.44; C 2.29
H21: C 2.53; T 1.47; G 1.55; K 2.28; E 1.89; R 1.85; P 1.49; S 1.29; Y 1.4; Q 1.35; L 1.97; M 2.56; A 2.17; W 2.41; I 2.39; V 1.91; F 1.8
M16: H 2.43; G 3.45; D 3.52; K 3.55; L 1.98; T 2.78; Q 3.57; S 3.15; A 3.98; R 3.9; P 1.65; F 2.18; N 2.86; V 2; W 1.52; I 3.24; C 2.64; Y 1.57; E 3.85
